Assay results taken from US20020045191A1, “Inhibition of the SRC kinase family pathway as a method of treating HBV infection and hepatocellular carcinoma” (priority 2000, published 2002).

Experiments:
AP-1 = AP-1 electrophoretic mobility shift assay (EMSA), HBx-transfected Chang cells; type: cell-based, human; conditions: cotransfection of increasing amounts of Csk plasmid
Protocol: (FIG. 3A) Cell extracts were prepared for AP-1 EMSA as described (Benn et al., 1996, supra) using a ^32P-labeled dsDNA oligonucleotide probe containing one AP-1 binding site. Reactions were carried out using 3 μg of nuclear extract, labeled oligonuleotide and 1 μg of poly(dI-dC) for 30 min at 23° C. Protein-DNA complexes were resolved by electrophoresis on 4% polyacrylamide gels and visualized by PhosphorImage 5analysis. As a positive control for AP-1 stimulation, cells were treated with 20 μM TPA for 30 min.
Here it is shown that HBx activation of AP-1 DNA binding activity and AP-1 directed transcription, both involve an essential requirement for HBx activation of Src tyrosine kinases. Chang cells were transfected with plasmids expressing HBx or HBxo proteins, with or without cotransfection of Csk, serum starved and nuclear extracts prepared for electrophoretic mobility shift assay (EMSA) using equal amounts of nuclear extracts and a ^32P-labeled dsDNA probe containing one AP-1 binding site, as described (Benn et al., 1996 supra). Cotransfection of increasing amounts of the Csk expressing plasmid suppressed HBx induction of AP-1 DNA binding complexes in a titratable manner (FIG. 3A). […]

MAP kinase (ERK2) [1] = experiment: MAP kinase (ERK2) MBP kinase assay during WHV replication in Chang cells; type: cell-based, human; conditions: co-expression with wtWHV
Protocol: FIG. 6. Woodchuck Hepatitis B Virus (WHV) HBx protein (WHx) activates a Src-Ras signaling cascade during WHV replication in cultured cells. […] Eighteen hours post-transfection, cells were serum-starved in 0.5% CS for 20 hours, MAP kinase (ERK-2) was immunoprecipitated from equal amounts of cell lysates and pellets were subjected to an in vitro MBP kinase assay.
To assay for MAP kinase activity, cells were lysed in freshly prepared lysis buffer (10 mM Tris HC1 pH 7.5, 1% Triton X-100, 0.5% NP-40, 1 mM EDTA, 1 mM EGTA, 1 mM Na3VO4, 50 mM NaF, 1 mM PMSF, 40 mM PPi, 10 μg/ml aprotinin, and 10 μg/ml leupeptin) and MAP kinase was immunoprecipitated using 1μg/ml anti-ERK2 antibodies from equal amounts of protein. After 4 washes with lysis buffer, and 2 with kinase buffer (20 mM Hepes pH 7.4, 10 mM MgCl2), the immunoprecipitates were incubated with kinase buffer including 0.5 mg/ml myelin basic protein (MBP, Sigma), 10 mM ATP and 5 μCi [γ-^32P]ATP for 30 minutes at 30° C. […]
To determine whether WHx also requires activation of Src family kinases for stimulation of Ras signaling during ongoing viral replication, Chang cells were co-transfected with plasmids synthesizing wtWHV and dominant-negative Ras (RasDN), dominant-negative Src (SrcK^−), or Csk proteins, and activation of MAP kinase was measured. […]

N-Myc = N-Myc immunoblot of nuclear extracts, HBx-transfected Chang cells; type: cell-based, human; conditions: co-expression with HBx, serum-starved 20 hours
Protocol: Chang cells were transfected with plasmids expressing HBxo, HBx, Csk, SrcK^−, FynK^−, and the dominant-negative Ras (RasN17). The Ras N17 mutant was initially shown to preferentially bind GDP in vitro and to inhibit cellular proliferation when stably expressed in NIH 3T3 cells (Feig et al., 1988, Moll. Cell Biol. 8:3235-3243). Transfected cells were serum-starved for 20 hours, nuclear extracts prepared, equal amounts of protein resolved by SDS-PAGE and immunoblotted with anti-N-Myc antibodies. Expression of transfected HBx elevates the amount of N-Myc protein 3-4 fold. […] The inability of dominant-negative Ras or Fyn proteins to block Src activation is consistent with the report by Barone and Courtneidge (1995, supra). Co-expression of HBx with the dominant-negative Ras had no effect on induction of N-Myc by HBx, and neither did the expression of dominant-negative Fyn protein. Whether other Src family members (e.g. Yes or Lyn) are involved in N-Myc induction by HBx was not tested in these experiments.

CMV promoter = experiment: CMV-βgal reporter control (β-galactosidase activity); type: cell-based; conditions: co-expression of Csk with CMV-βgal
Source text: (§1) To assess whether HBx activation of a Src signaling cascade plays an essential role in transcriptional upregulation of the viral mRNAs, Chang cells were co-transfected with wtWHV and either RasDN or Csk plasmids, and the RNA visualized by Northern analysis (FIG. 7, lanes 2 and 3). […] To ensure that the decrease in synthesis of WHV RNA by Csk was not the unforseen consequence of Csk inhibition of the CMV promoter (which drives synthesis of the WHV pregenomic RNA), control experiments assessing the effect of Csk on a CMV-βgal reporter were carried out. […] However, the WHx-induced increase in mRNA abundance (˜3-5 fold) is much less then the HBx-induced increase in viral DNA synthesis (˜20-30 fold). […] The stimulation of Src signaling cascades by HBx must therefore promote WHV replication independent of the effect of WHx on viral transcription.

MAP kinase (ERK2) [2] = experiment: MAP kinase (ERK2) immunoprecipitation / MBP kinase assay in HBx-transfected Chang cells; type: cell-based, human
Protocol: (FIG. 2B) ERK2 was immunoprecipitated from equal amounts of cell lysates analyzed by in vitro phosphorylation of myelin basic protein (MBP) using [γ-^32P] ATP. […] Cells were stimulated with 100 μg/ml of insulin (Intergen) for 10 min.
To assay for MAP kinase activity, cells were lysed in freshly prepared lysis buffer (10 mM Tris HC1 pH 7.5, 1% Triton X-100, 0.5% NP-40, 1 mM EDTA, 1 mM EGTA, 1 mM Na3VO4, 50 mM NaF, 1 mM PMSF, 40 mM PPi, 10 μg/ml aprotinin, and 10 μg/ml leupeptin) and MAP kinase was immunoprecipitated using 1μg/ml anti-ERK2 antibodies from equal amounts of protein. After 4 washes with lysis buffer, and 2 with kinase buffer (20 mM Hepes pH 7.4, 10 mM MgCl2), the immunoprecipitates were incubated with kinase buffer including 0.5 mg/ml myelin basic protein (MBP, Sigma), 10 mM ATP and 5 μCi [γ-^32P]ATP for 30 minutes at 30° C. The reactions were stopped by the addition of 2× sample loading buffer (Sambrook et al. 1989, supra), resolved by 15% SDS-PAGE and visualized by autoradiography. Assays for activation of JNK MAP kinases were carried out exactly as described above, except that the immunoprecipitated JNK was incubated with 5 μg purified GST-c-Jun (Benn et al., 1996, supra) and 10 μCi [γ-^32P]ATP, and resolved by 10% SDS-PAGE.
To test whether HBx activation of the Src family of kinases is required for stimulation of Ras signaling by HBx, Chang cells were transfected at low density with plasmids expressing HBxo, HBx or HBx and Csk, serum-starved for 20 hours, 2% serum restored for 2 hours to permit protein synthesis, and activation of immunoprecipitated MAP kinase at the end of the Ras-MAP kinase cascade assayed by incubation with myelin basic protein (MBP) and [γ-^32P]ATP (FIG. 2). Expression of HBx induces a strong activation in the ability of MAP kinase to phosphorylate MBP that is abolished upon co-transfection of HBx with Csk. […]

WHV [3] = experiment: WHV replication: Southern blot of core-associated viral DNA, Chang cells; type: cell-based, Woodchuck Hepatitis B Virus; conditions: co-expression with wtWHV, 3 days post-transfection
Protocol: FIG. 7. WHx requires activation of Src family kinase for WHV replication. Chang cells were co-transfected with 20 μg PCWHV, wtWHV, wtWHV and RasDN (dominant-negative) (10 μg), or wtWHV and Csk (10 μg). Three days post-transfection viral core-associated DNA was isolated, purified, and subjected to Southern blot analysis using a full-length ^32P-labeled WHV genomic probe.
Chang cells were transfected with infectious WHV clones, (2×10 cm plates) were washed twice with PBS and lysed in 500 μl lysis buffer/10 cm plate (20 mM Tris HCl pH 7.5, 1 mM EDTA, 100 mM NaCl, 0.5% NP-40) for 10-15 minutes. Lysates were centrifuged at 12,000× g for 30 minutes, MgCl2 was adjusted to 10 mM, DNAseI (Boehringer Mannheim) was added to 20 U/ml and the lysates were incubated at 37° C. for 2 hours. Following DNAse I treatment, the lysates were centrifuged for 5 min at 12,000× g, layered onto a 20% sucrose cushion (300 μl of 20% sucrose in 20 mM Tris HCl pH 8.0, 150 mM NaCl) and centrifuged for 178,000× g for 3 hours at 20° C. […]
Chang cells were co-transfected with plasmids encoding either wtWHV, PCWHV, wtWHV and RasDN, or wtWHV and Csk, intracellular core-associated viral DNA was isolated 3 days post-transfection, and purified viral DNA analyzed by Southern blot hybridization as described above (FIG. 7).

[4] = test system: AP-1 dependent transcription; experiment: AP-1 dependent luciferase reporter, HBx-transfected Chang cells; type: cell-based, human; conditions: co-expression with Csk
Protocol: (FIG. 3B) Cells were transfected as above but contained in addition 3 μg of plasmid pAP-1Luc, which encodes the luciferase reporter under the control of four AP-1 binding sites and a minimal TATA box promoter. Serum starved cells were harvested 18 h after transfection and the level of expression of the luciferase reporter assayed. Results are the average of three independent experiments.
Here it is shown that HBx activation of AP-1 DNA binding activity and AP-1 directed transcription, both involve an essential requirement for HBx activation of Src tyrosine kinases. Chang cells were transfected with plasmids expressing HBx or HBxo proteins, with or without cotransfection of Csk, serum starved and nuclear extracts prepared for electrophoretic mobility shift assay (EMSA) using equal amounts of nuclear extracts and a ^32P-labeled dsDNA probe containing one AP-1 binding site, as described (Benn et al., 1996 supra). Cotransfection of increasing amounts of the Csk expressing plasmid suppressed HBx induction of AP-1 DNA binding complexes in a titratable manner (FIG. 3A). Finally, cells were cotransfected with plasmids expressing HBx or HBxo and an AP-1 dependent luciferase reporter under the control of a minimal promoter, with and without a Csk expression plasmid (FIG. 3B).

WHV [5] = experiment: WHV RNA: Northern blot analysis, Chang cells; type: cell-based, Woodchuck Hepatitis B Virus; conditions: co-expression with wtWHV
Protocol: Chang cells were washed twice with PBS and total RNA prepared according to the manufacturer's instructions (RNeasy mini kit; Qiagen). 15 μg total RNA per sample were resolved through a 1.2% formaldehyde-agarose gel (Sambrook et al., 1989, supra), transferred to Duralon UV membrane, and pre-hybridized in Quick-Hyb solution (Stratagene) at 65° C. Hybridization to 32P-labeled full length WHV probe was carried out in the same solution at 65° C., washed as described above, and autoradiographed for 1 day.
as §1

B1: Csk: protein tyrosine kinase C-terminal Src kinase, physiologic inhibitor of Src, expressed from plasmid (protein, UniProt P41240 2-450, looked up)
Tyrosine-protein kinase CSK: SAIQAAWPSGTECIAKYNFHGTAEQDLPFCKGDVLTIVAVTKDPNWYKAKNKVGREGIIPANYVQKREGVKAGTKLSLMPWFHGKITREQAERLLYPPETGLFLVRESTNYPGDYTLCVSCDGKVEHYRIMYHASKLSIDEEVYFENLMQLVEHYTSDADGLCTRLIKPKVMEGTVAAQDEFYRSGWALNMKELKLLQTIGKGEFGDVMLGDYRGNKVAVKCIKNDATAQAFLAEASVMTQLRHSNLVQLLGVIVEEKGGLYIVTEYMAKGSLVDYLRSRGRSVLGGDCLLKFSLDVCEAMEYLEGNNFVHRDLAARNVLVSEDNVAKVSDFGLTKEASSTQDTGKLPVKWTAPEALREKKFSTKSDVWSFGILLWEIYSFGRVPYPRIPLKDVVPRVEKGYKMDAPDGCPPAVYEVMKNCWHLDAAMRPSFLQLREQLEHIKTHELHL
Q: With B1 as the molecule, how does the “HBx induction of AP-1 DNA binding complexes” value (AP-1) read?
A: suppressed

Q: What about the “downstream activation of MAP kinase by wtWHV” value (MAP kinase (ERK2) [1]) of the same molecule?
A: efficiently inhibited

Q: What about the “increase in N-Myc protein by HBx” value (N-Myc) of the same molecule?
A: impaired

Q: What about the “expression of βgal protein from CMV-βgal (β-galactosidase activity)” value (CMV promoter) of the same molecule?
A: did not significantly alter

Q: And the “HBx activation of ERK2” value (MAP kinase (ERK2) [2]; co-expression with HBx, serum-starved in 0.5% CS for 24 hours)?
A: impaired

Q: What about the “HBx activation of MAP kinase (phosphorylation of MBP)” value (MAP kinase (ERK2) [2]; co-transfection of HBx with Csk, serum-starved 20 hours, 2% serum 2 hours) of the same molecule?
A: abolished

Q: And the “activation of MAP kinase by insulin” value (MAP kinase (ERK2) [2]; overexpression of Csk)?
A: only slightly impaired

Q: And the “WHV replication (core-associated viral DNA)” value (WHV [3])?
A: completely abolished

Q: And the “HBx induced activation of AP-1 dependent transcription” value [4]?
A: fully blocked

Q: What about the “reduction of WHV RNA level” value (WHV [5]) of the same molecule?
A: 3-5 fold
